Experimental data as given in US20190241648A1 (STATEN BIOTECHNOLOGY B V, published 2019).
Ends that are not written are not given here.

Legend:
[1] = molecular target: T1, ApoC3 peptide … G41V (human); assay: peptide microarray
T1 sequence (peptide, cyclic constrained): ARVWVTDGFSSLK

[2] = molecular target: T2, ApoC3 peptide … D45T (human); assay: peptide microarray
T2 sequence (peptide, cyclic constrained): ARGWVTTGFSSLK

[3] = molecular target: T3, ApoC3 peptide … V43W (human); assay: peptide microarray
T3 sequence (peptide, cyclic constrained): ARGWWTDGFSSLK

[4] = molecular target: T4, ApoC3 peptide … V43Q (human); assay: peptide microarray
T4 sequence (peptide, cyclic constrained): ARGWQTDGFSSLK

[5] = molecular target: T5, ApoC3 peptide … G41P (human); assay: peptide microarray
T5 sequence (peptide, cyclic constrained): ARPWVTDGFSSLK

[6] = molecular target: T6, ApoC3 peptide … G41T (human); assay: peptide microarray
T6 sequence (peptide, cyclic constrained): ARTWVTDGFSSLK

[7] = molecular target: T7, ApoC3 peptide … V43T (human); assay: peptide microarray
T7 sequence (peptide, cyclic constrained): ARGWTTDGFSSLK

ApoC3 peptide E63V = molecular target: T8, ApoC3 peptide E63V (human, cyclic (thioether)); assay: cyclic peptide substitution array
T8 peptide: DKFSVFWDLDPEV
How it was run: (§1)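 Peptide microarrays incubated with antibody samples, then stained with goat anti-human IgG (Fc) DyLight680 and anti-HA DyLight800 control antibodies, scanned at intensity 7/7 (red/green). Secondary-only pre-stain checked background binding; framing HA peptides served as quality control; substitution effects read as changes in spot intensity.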

ApoC3 peptide V71F = molecular target: T9, ApoC3 peptide V71F (human, thioether (positions not given here); also: cyclic (thioether), ring places not given here); assay: cyclic peptide substitution array
T9 peptide: DKFSEFWDLDPEF
How it was run: as §1

ApoC3 peptide W65S = molecular target: T10, ApoC3 peptide W65S (human, cyclic (thioether)); assay: cyclic peptide substitution array
T10 peptide: DKFSEFSDLDPEV
How it was run: as §1

ApoC3 peptide F61L = molecular target: T11, ApoC3 peptide F61L (human, cyclic (thioether)); assay: cyclic peptide substitution array
T11 peptide: DKLSEFWDLDPEV
How it was run: as §1

ApoC3 peptide D68I = molecular target: T12, ApoC3 peptide D68I (human, cyclic (thioether)); assay: cyclic peptide substitution array
T12 peptide: DKFSEFWDLIPEV
How it was run: as §1

ApoC3 peptide E70W = molecular target: T13, ApoC3 peptide E70W (human, cyclic (thioether)); assay: cyclic peptide substitution array
T13 peptide: DKFSEFWDLDPWV
How it was run: as §1

ApoC3 peptide L67C = molecular target: T14, ApoC3 peptide L67C (human, cyclic (thioether)); assay: cyclic peptide substitution array
T14 peptide: DKFSEFWDCDPEV
How it was run: as §1

ApoC3 peptide E63C [8] = molecular target: T15, ApoC3 peptide E63C (human, not fully specified; cyclic (thioether)); assay: cyclic peptide substitution array
T15 peptide: DKFSCFWDLDPEV
How it was run: as §1

ApoC3 peptide V71I = molecular target: T16, ApoC3 peptide V71I (human, thioether (positions not given here); also: cyclic (thioether), ring places not given here); assay: cyclic peptide substitution array
T16 peptide: DKFSEFWDLDPEI
How it was run: as §1

ApoC3 peptide P69E = molecular target: T17, ApoC3 peptide P69E (human, not fully specified; cyclic (thioether)); assay: cyclic peptide substitution array
T17 peptide: DKFSEFWDLDEEV
How it was run: as §1

ApoC3 peptide F64S = molecular target: T18, ApoC3 peptide F64S (human, thioether (positions not given here); not fully specified (bridges); also: cyclic (thioether), positions not given here); assay: cyclic peptide substitution array
T18 peptide: DKFSESWDLDPEV
How it was run: as §1

ApoC3 peptide P69V = molecular target: T19, ApoC3 peptide P69V (human, not fully specified; cyclic (thioether)); assay: cyclic peptide substitution array
T19 peptide: DKFSEFWDLDVEV
How it was run: as §1

ApoC3 peptide F64E = molecular target: T20, ApoC3 peptide F64E (human, cyclic (thioether)); assay: cyclic peptide substitution array
T20 peptide: DKFSEEWDLDPEV
How it was run: as §1

ApoC3 peptide D68Y = molecular target: T21, ApoC3 peptide D68Y (human, cyclic (thioether)); assay: cyclic peptide substitution array
T21 peptide: DKFSEFWDLYPEV
How it was run: as §1

ApoC3 peptide W65V = molecular target: T22, ApoC3 peptide W65V (human, cyclic (thioether)); assay: cyclic peptide substitution array
T22 peptide: DKFSEFVDLDPEV
How it was run: as §1

ApoC3 peptide F61W = molecular target: T23, ApoC3 peptide F61W (human, cyclic (thioether)); assay: cyclic peptide substitution array
T23 peptide: DKWSEFWDLDPEV
How it was run: as §1

ApoC3 peptide P69F = molecular target: T24, ApoC3 peptide P69F (human, not fully specified; cyclic (thioether)); assay: cyclic peptide substitution array
T24 peptide: DKFSEFWDLDFEV
How it was run: as §1

ApoC3 peptide V71D = molecular target: T25, ApoC3 peptide V71D (human, thioether (positions not given here); also: cyclic (thioether), ring places not given here); assay: cyclic peptide substitution array
T25 peptide: DKFSEFWDLDPED
How it was run: as §1

ApoC3 peptide W65F = molecular target: T26, ApoC3 peptide W65F (human, not fully specified; cyclic (thioether)); assay: cyclic peptide substitution array
T26 peptide: DKFSEFFDLDPEV
How it was run: as §1

ApoC3 peptide K60Y = molecular target: T27, ApoC3 peptide K60Y (human, cyclic (thioether)); assay: cyclic peptide substitution array
T27 peptide: DYFSEFWDLDPEV
How it was run: as §1

ApoC3 peptide K60R = molecular target: T28, ApoC3 peptide K60R (human, cyclic (thioether)); assay: cyclic peptide substitution array
T28 peptide: DRFSEFWDLDPEV
How it was run: as §1

ApoC3 peptide F61T = molecular target: T29, ApoC3 peptide F61T (human, cyclic (thioether)); assay: cyclic peptide substitution array
T29 peptide: DKTSEFWDLDPEV
How it was run: as §1

ApoC3 peptide … F61I = molecular target: T30, ApoC3 peptide … F61I (human, cyclic constrained); assay: cyclic peptide substitution array
T30 peptide: DKISEFWDLDPEV

ApoC3 peptide … L67N = molecular target: T31, ApoC3 peptide … L67N (human, not fully specified (bridges); also: cyclic constrained); assay: cyclic peptide substitution array
T31 peptide: DKFSEFWDNDPEV

ApoC3 peptide … E63W = ApoC3 peptide … E63W (human, cyclic constrained); assay: cyclic peptide substitution array
ApoC3 peptide E63Y = molecular target: T32, ApoC3 peptide E63Y (human, cyclic (thioether)); assay: peptide microarray
T32 peptide: DKFSYFWDLDPEV

ApoC3 peptide L67A = molecular target: T33, ApoC3 peptide L67A (human, not fully specified; cyclic (thioether)); assay: peptide microarray
T33 peptide: DKFSEFWDADPEV

ApoC3 peptide E63C [9] = molecular target: T15, ApoC3 peptide E63C; assay: peptide microarray
ApoC3 peptide L67E = molecular target: T34, ApoC3 peptide L67E (human, thioether (positions not given here); not fully specified (bridges); also: thioether between a C-terminal Cys side chain and a modified N-terminus, the Cys is not in the chain); assay: peptide microarray
T34 peptide: DKFSEFWDEDPEV

ApoC3 peptide S62F = molecular target: T35, ApoC3 peptide S62F (human, not fully specified; cyclic (thioether)); assay: peptide microarray
T35 peptide: DKFFEFWDLDPEV

B1: anti-ApoC3 antibody 14C7 (antibody, V domains shown)
VH: QVQVQESGPGLVKPSQTLSLTCTVSGGSITTNSYYWSWIRQPPGKGLEWMGAIDYSGDTYYSPSLKSRTSISRDTSKNQFTLQLTSVTPEDTAVYYCVSRIPTGEYWGQGTQVTVSS
VL: QTVVTQEPSLSVSPGGTVTLTCGLNSGSVTSSNYPDWYQQTPGQAPRLLIYNTNSRHSGVPSRFSGSISGNKAALTITGAQPEDEADYYCALYMGSDSVVFGGGTHLTVL
notes: it was detected with goat anti-human IgG (Fc); also called mAb 14C7; llama antibody 14C7
B1 was tested, and the % of binding to wild-type peptide [1] was 8.76%, the % of binding to wild-type peptide [2] was 8.67% and the % of binding to wild-type peptide [3] was 8.98%. For the same binder, the % of binding to wild-type peptide [4] was 7.49%, the % of binding to wild-type peptide [5] was 8.7% and the % of binding to wild-type peptide [6] was 9.44%. It also gave a % of binding to wild-type peptide [7] of 9.94%.

B2: Llama antibody 5E5 (antibody, V domains shown)
VH: QLQLVESGGGLVQPGGSLRLSCAASGFTFGTYSMRWVRQVPRKALEWVSSISTDGGGTAYRDSVKGRFTISRDNAKNTLYLQMNNLKPEDTAIYYCVIAGYSDWGQGTQVTVSS
VL: ATMLTQSPGSLSVVPGESASISCKTSQGLVHSDGKTYFYWFLQKPGQSPQQLIYQVSNRASGVPDRFTGSGSGTDFTLKISGVKAEDAGVYYCAQGTYYPHTFGSGTRLEIK
notes: detected with goat anti-human IgG (Fc); also called mAb 5E5
B2 was tested, and the “% of binding to wild-type peptide” value (ApoC3 peptide E63V) was 4.2%, the “% of binding to wild-type peptide” value (ApoC3 peptide V71F) was 81.4% and the “% of binding to wild-type peptide” value (ApoC3 peptide W65S) was 0%. For the same binder, the “% of binding to wild-type peptide” value (ApoC3 peptide F61L) was 63.4%, the “% of binding to wild-type peptide” value (ApoC3 peptide D68I) was 0% and the “% of binding to wild-type peptide” value (ApoC3 peptide E70W) was 35.4%. For the same binder, the “% of binding to wild-type peptide” value (ApoC3 peptide L67C) was 0%, the “% of binding to wild-type peptide” value (ApoC3 peptide E63C [8]) was 2.3% and the “% of binding to wild-type peptide” value (ApoC3 peptide V71I) was 66%. For the same binder, the “% of binding to wild-type peptide” value (ApoC3 peptide P69E) was 43%, the “% of binding to wild-type peptide” value (ApoC3 peptide F64S) was 367% and the “% of binding to wild-type peptide” value (ApoC3 peptide P69V) was 55.2%. The “% of binding to wild-type peptide” value (ApoC3 peptide F64E) was 283%, the “% of binding to wild-type peptide” value (ApoC3 peptide D68Y) was 0.16% and the “% of binding to wild-type peptide” value (ApoC3 peptide W65V) was 17.9%. For the same binder, the “% of binding to wild-type peptide” value (ApoC3 peptide F61W) was 15.7%, the “% of binding to wild-type peptide” value (ApoC3 peptide P69F) was 11.6% and the “% of binding to wild-type peptide” value (ApoC3 peptide V71D) was 111%. The “% of binding to wild-type peptide” value (ApoC3 peptide W65F) was 5.5%, the “% of binding to wild-type peptide” value (ApoC3 peptide K60Y) was 56.3% and the “% of binding to wild-type peptide” value (ApoC3 peptide K60R) was 112%. For the same binder, the “% of binding to wild-type peptide” value (ApoC3 peptide F61T) was 40.3%, the % of binding to wild-type peptide (ApoC3 peptide … F61I) was 7.59% and the % of binding to wild-type peptide (ApoC3 peptide … L67N) was 9.84%. For the same binder, the % of binding to wild-type peptide (ApoC3 peptide … E63W) was 9.57%.

B3: anti-ApoC3 antibody 6A6 (antibody, V domains shown)
VH: EVQLVESGGGLVQPGGSLRLSCAASGFTFSSYAGRWVRQVPGKGLEWVSSINAGGGSTSYADSVKGRFTISRDNAKNTLYLQMNSLKPEDTAKYYCTQNSYRYWGQGTRVAVSS
VL: DVVLTQTPGSLSVVPGESASISCKASQSLIHTDGKTYLYWLLQKPGQRPQLLIYQVSSHESGVPDRFTGSGSGTDFTLKISGVKAEDAGVYYCAQATYNPRTFGQGTKLEIK
notes: it was detected with goat anti-human IgG (Fc); also called mAb 6A6; llama antibody 6A6
With B3 the % of binding to wild-type peptide (ApoC3 peptide E63Y) was 8.92%, the % of binding to wild-type peptide (ApoC3 peptide L67A) was 9.07% and the % of binding to wild-type peptide (ApoC3 peptide E63C [9]) was 7.93%. It also gave a % of binding to wild-type peptide (ApoC3 peptide L67E) of 8.52% and a % of binding to wild-type peptide (ApoC3 peptide S62F) of 9.54%.
